In patent US20170275356A1:

Biological target: human IL-23 (human) (UniProt P29460)
Assay: cell-based or functional assay

human IL-23 (human), sequence (chain, as listed by the source limits assumed, chain 1 of 2): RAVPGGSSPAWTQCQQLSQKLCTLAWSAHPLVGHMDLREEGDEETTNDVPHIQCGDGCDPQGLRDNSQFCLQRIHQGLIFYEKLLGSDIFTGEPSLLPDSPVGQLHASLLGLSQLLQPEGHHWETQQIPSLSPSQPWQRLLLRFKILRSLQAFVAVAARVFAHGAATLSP
human IL-23 (human), sequence (P29460 23-328 limits assumed, chain 2 of 2): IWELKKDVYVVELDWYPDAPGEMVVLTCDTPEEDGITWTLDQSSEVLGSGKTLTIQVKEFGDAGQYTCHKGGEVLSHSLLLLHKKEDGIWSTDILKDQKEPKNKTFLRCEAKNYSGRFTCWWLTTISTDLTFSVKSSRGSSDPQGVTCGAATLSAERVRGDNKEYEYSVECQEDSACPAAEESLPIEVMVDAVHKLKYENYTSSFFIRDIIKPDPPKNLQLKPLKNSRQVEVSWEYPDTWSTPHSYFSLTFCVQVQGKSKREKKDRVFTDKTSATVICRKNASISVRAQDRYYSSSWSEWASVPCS

Ct value, murine IL-17A mRNA in skin injected with human IL-23 (in vivo neutralization): 35.4 Ct
Ct value, murine IL-17F mRNA in skin injected with human IL-23 (in vivo neutralization): 31.6 Ct
Substance: isotype control antibody
